The values that follow come from patent US20100120665A1.

Common to all, as to assay: cell-based or functional assay
Test [1] deals with human complement factor D (human) (UniProt P00746).
For test [2], the target named is purified human factor B protein (Quidel, Catalog# A408) (human) (UniProt P00751).
In test [3] the target is mouse factor B (endogenous, in diluted whole mouse serum) (mouse) (UniProt P04186).
Chain of UniProt P04186 (P04186 23-761): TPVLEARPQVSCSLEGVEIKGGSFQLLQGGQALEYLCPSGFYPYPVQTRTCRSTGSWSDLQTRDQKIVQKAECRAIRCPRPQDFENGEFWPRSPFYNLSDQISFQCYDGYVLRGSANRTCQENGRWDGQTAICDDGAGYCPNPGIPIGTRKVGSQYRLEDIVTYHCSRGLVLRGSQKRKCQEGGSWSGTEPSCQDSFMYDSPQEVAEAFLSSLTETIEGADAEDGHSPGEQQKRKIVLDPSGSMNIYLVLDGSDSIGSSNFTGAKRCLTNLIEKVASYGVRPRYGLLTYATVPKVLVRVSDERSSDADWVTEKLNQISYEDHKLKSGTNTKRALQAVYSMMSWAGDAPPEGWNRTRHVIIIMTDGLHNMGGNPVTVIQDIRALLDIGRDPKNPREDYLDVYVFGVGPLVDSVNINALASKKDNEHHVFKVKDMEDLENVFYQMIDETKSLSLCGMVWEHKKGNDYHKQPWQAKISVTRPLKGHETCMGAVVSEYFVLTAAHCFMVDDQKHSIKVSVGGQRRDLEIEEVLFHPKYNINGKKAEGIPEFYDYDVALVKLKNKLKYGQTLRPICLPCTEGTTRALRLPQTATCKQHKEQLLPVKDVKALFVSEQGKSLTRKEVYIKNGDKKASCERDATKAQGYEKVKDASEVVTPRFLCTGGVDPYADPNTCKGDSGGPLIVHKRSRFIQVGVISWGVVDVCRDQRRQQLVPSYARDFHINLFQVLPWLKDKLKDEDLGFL

Chain of UniProt P00746 (P00746 26-253 limits assumed): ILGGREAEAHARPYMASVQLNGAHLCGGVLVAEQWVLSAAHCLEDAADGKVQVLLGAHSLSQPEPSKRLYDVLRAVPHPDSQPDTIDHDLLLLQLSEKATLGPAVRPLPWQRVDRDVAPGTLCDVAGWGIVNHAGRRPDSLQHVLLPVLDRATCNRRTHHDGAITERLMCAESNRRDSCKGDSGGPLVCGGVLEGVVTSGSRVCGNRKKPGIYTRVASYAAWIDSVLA
Chain of UniProt P00751 (P00751 26-764): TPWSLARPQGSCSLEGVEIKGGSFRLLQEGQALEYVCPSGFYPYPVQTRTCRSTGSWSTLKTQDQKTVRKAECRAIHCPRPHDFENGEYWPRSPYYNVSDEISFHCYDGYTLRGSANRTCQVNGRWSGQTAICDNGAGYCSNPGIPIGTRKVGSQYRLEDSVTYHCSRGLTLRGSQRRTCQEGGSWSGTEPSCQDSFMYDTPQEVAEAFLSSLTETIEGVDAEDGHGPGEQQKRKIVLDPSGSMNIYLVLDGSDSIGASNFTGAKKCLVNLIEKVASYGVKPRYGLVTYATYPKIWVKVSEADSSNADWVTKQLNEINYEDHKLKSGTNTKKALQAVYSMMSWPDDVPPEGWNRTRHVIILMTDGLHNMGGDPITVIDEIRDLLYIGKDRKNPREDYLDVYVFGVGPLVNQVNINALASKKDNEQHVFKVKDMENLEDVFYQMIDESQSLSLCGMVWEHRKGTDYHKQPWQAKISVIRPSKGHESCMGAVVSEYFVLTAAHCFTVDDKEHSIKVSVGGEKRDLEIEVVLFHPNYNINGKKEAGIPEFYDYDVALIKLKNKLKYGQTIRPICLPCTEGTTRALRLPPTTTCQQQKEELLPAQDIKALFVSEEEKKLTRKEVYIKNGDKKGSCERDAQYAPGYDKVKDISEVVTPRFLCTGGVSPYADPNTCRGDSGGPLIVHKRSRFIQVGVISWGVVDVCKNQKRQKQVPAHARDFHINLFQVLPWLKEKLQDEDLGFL

For “isotype matched mouse control IgG (eBioscience, Catalog# 14-4732) (antibody)”, in test [1], the hemolysis OD 405 nm; Control IgG 5 ng + Purified hfB protein 0.5 ug was 0.428 OD 405 nm, the hemolysis OD 405 nm; Control IgG 10 ng + Purified hfB protein 0.5 ug was determined as 0.361 OD 405 nm, the hemolysis OD 405 nm; Control IgG 20 ng + Purified hfB protein 0.5 ug came to 0.441 OD 405 nm and the hemolysis OD 405 nm; Control IgG 30 ng + Purified hfB protein 0.5 ug was 0.392 OD 405 nm. In test [1], the hemolysis OD 405 nm; Control IgG 40 ng + Purified hfB protein 0.5 ug was found to be 0.426 OD 405 nm, the hemolysis OD 405 nm; Control IgG 50 ng + Purified hfB protein 0.5 ug was 0.43 OD 405 nm, the hemolysis OD 405 nm; Control IgG 60 ng + Purified hfB protein 0.5 ug was 0.416 OD 405 nm and the hemolysis OD 405 nm; Control IgG 70 ng + Purified hfB protein 0.5 ug worked out at 0.395 OD 405 nm. Besides, in test [1], the hemolysis OD 405 nm; Control IgG 80 ng + Purified hfB protein 0.5 ug is 0.387 OD 405 nm, the hemolysis OD 405 nm; Control IgG 90 ng + Purified hfB protein 0.5 ug is 0.347 OD 405 nm, the hemolysis OD 405 nm; Control IgG 100 ng + Purified hfB protein 0.5 ug turned out to be 0.397 OD 405 nm and the hemolysis OD 405 nm; Control IgG 150 ng + Purified hfB protein 0.5 ug came out at 0.426 OD 405 nm. Further, in test [1], the hemolysis OD 405 nm; Control IgG 200 ng + Purified hfB protein 0.5 ug is 0.347 OD 405 nm, the hemolysis OD 405 nm; Control IgG 400 ng + Purified hfB protein 0.5 ug was 0.506 OD 405 nm, the hemolysis OD 405 nm; Control IgG 800 ng + Purified hfB protein 0.5 ug came out at 0.538 OD 405 nm and the hemolysis OD 405 nm; Control IgG 1600 ng + Purified hfB protein 0.5 ug was 0.618 OD 405 nm. Besides, in test [1], the hemolysis OD 405 nm; Control IgG 2400 ng + Purified hfB protein 0.5 ug amounted to 0.588 OD 405 nm.

For the substance “monoclonal anti-human factor D antibody (Affinity Bioreagents, Catalog# GAU008-01-02)”, in test [1], the hemolysis OD 405 nm; Anti-hfD mAb 5 ng + Purified hfB protein 0.5 ug amounted to 0.373 OD 405 nm, the hemolysis OD 405 nm; Anti-hfD mAb 10 ng + Purified hfB protein 0.5 ug amounted to 0.432 OD 405 nm, the hemolysis OD 405 nm; Anti-hfD mAb 20 ng + Purified hfB protein 0.5 ug was 0.369 OD 405 nm and the hemolysis OD 405 nm; Anti-hfD mAb 30 ng + Purified hfB protein 0.5 ug was 0.235 OD 405 nm. Besides, in test [1], the hemolysis OD 405 nm; Anti-hfD mAb 40 ng + Purified hfB protein 0.5 ug is 0.227 OD 405 nm, the hemolysis OD 405 nm; Anti-hfD mAb 50 ng + Purified hfB protein 0.5 ug is 0.165 OD 405 nm, the hemolysis OD 405 nm; Anti-hfD mAb 60 ng + Purified hfB protein 0.5 ug turned out to be 0.126 OD 405 nm and the hemolysis OD 405 nm; Anti-hfD mAb 70 ng + Purified hfB protein 0.5 ug was 0.103 OD 405 nm. Besides, in test [1], the hemolysis OD 405 nm; Anti-hfD mAb 80 ng + Purified hfB protein 0.5 ug was determined as 0.078 OD 405 nm, the hemolysis OD 405 nm; Anti-hfD mAb 90 ng + Purified hfB protein 0.5 ug was determined as 0.058 OD 405 nm, the hemolysis OD 405 nm; Anti-hfD mAb 100 ng + Purified hfB protein 0.5 ug was 0.061 OD 405 nm and the hemolysis OD 405 nm; Anti-hfD mAb 150 ng + Purified hfB protein 0.5 ug came to 0.035 OD 405 nm. Besides, in test [1], the hemolysis OD 405 nm; Anti-hfD mAb 200 ng + Purified hfB protein 0.5 ug was 0.029 OD 405 nm, the hemolysis OD 405 nm; Anti-hfD mAb 400 ng + Purified hfB protein 0.5 ug was 0.022 OD 405 nm, the hemolysis OD 405 nm; Anti-hfD mAb 800 ng + Purified hfB protein 0.5 ug came out at 0.015 OD 405 nm and the hemolysis OD 405 nm; Anti-hfD mAb 1600 ng + Purified hfB protein 0.5 ug came to 0.014 OD 405 nm. Also, the hemolysis OD 405 nm; Anti-hfD mAb 2400 ng + Purified hfB protein 0.5 ug in test [1] was determined as 0.049 OD 405 nm.

Take “mouse monoclonal antibody against human factor B (Quidel, Catalog# A227)”: in test [2], the hemolysis OD 405 nm; Anti hfB mAb 0.4 ug + Purified hfB Protein 0.5 ug stood at 0.051 OD 405 nm and the hemolysis OD 405 nm; Anti hfB mAb 0.8 ug + Purified hfB Protein 0.5 ug is 0 OD 405 nm. Besides, the hemolysis OD 405 nm; Anti hfB mAb 0.4 ug + Mouse serum 50 ul (1:6 Diluted) in test [3] turned out to be 0.074 OD 405 nm.
